Measurements taken from patent US20240409663A1 (CONCEPT TO MEDICINE BIOTECH, published 2024).
Read-outs that look alike come from different tables or passages of the source.

Key:
human GPC3 on cells [1] = biological target: T1, human GPC3 on cells (human, UniProt P51654 25-554); assay: cell-based or functional assay
human GPC3 on cells [2] = biological target: T1, human GPC3 on cells; assay: FACS, GPC3-CHOK1 cells
Experimental: To evaluate the antigen binding property, the affinity maturated antibodies were analyzed for their binding to human GPC3 over-expressed CHOK1 cells by FACS as previously described.

human GPC3 on cells [3] = biological target: T1, human GPC3 on cells; assay: cell-based or functional assay; remark: listed apart in the source
human GPC3 on cells [4] = biological target: T1, human GPC3 on cells; assay: FACS, Huh-7 cells
Experimental: (§1) To evaluate the antigen binding property, the humanized antibodies were analyzed for their binding to human GPC3 over-expressed CHOK1 cells and Huh-7 cells by FACS. Briefly, GPC3-CHOK1 cells and Huh-7 cells were firstly incubated with Fc blocking reagent at 4° C. for 15 mins. Cells were washed by FACS buffer and divided to each well with 4-fold serially diluted humanized antibodies starting at 10 μg/mL at 4° C. for 60 mins. Cells were washed by FACS buffer and fixed with 2% PFA at RT for 15 mins. […] As different plates might affect the EC50 of 52H5D3B8-VH+VL, the 12 humanized antibodies were separated into two plates.

human GPC3 on cells [5] = biological target: T1, human GPC3 on cells; assay: FACS, GPC3-CHOK1 cells; remark: listed apart in the source
Experimental: as §1

[6] = biological target: T2, human GPC3-his tag protein (human, UniProt P51654 25-559, limits assumed); assay: SPR Biacore 8K, mAb captured, affinity ranking
T2 construct: recombinant soluble antigen used as analyte in all Biacore runs; also called recombinant GPC3 protein; rhGPC3-His; not shown: His tag
Experimental: To evaluate antigen binding activity, the chimeric antibody's affinity was measured by Biacore 8K. Two concentrations with most close affinity to the chimeric antibody's affinity were chosen for the 12 humanized antibodies' affinity detection. Human GPC3-his tag protein was injected over captured antibody for 3 mins at a flow rate of 30 μl/min. The antigen was allowed to dissociate for 720 s.

human GPC3 on cells [7] = biological target: T1, human GPC3 on cells; assay: FACS, GPC3-CHOK1 cells; remark: listed apart in the source
Source text: (§2) FACS was used to evaluate the binding activity of Hu 52H5D3B8-7 and Hu 52H5D3B8-8 with comparison to benchmark antibodies GC33 and Y035 on human GPC3 expressed on CHOK1 cells, Huh-7 cell and HEPG2 cells. In order to evaluate the properties of CDRs and frameworks of Hu 52H5D3B8-7 Ab, two chimeric antibodies were generated. The antibody termed “Hu 52H5D3B8-7/8 CDRs with Y035 FRs” contains the Hu 52H5D3B8-7 CDRs and the Y035 FRs. The antibody termed “Y035 CDRs with Hu 52H5D3B8-7 FRs” represents the chimeric antibody with the Y035 CDRs engrafted to Hu 52H5D3B8-7 FRs.

human GPC3 on cells [8] = biological target: T1, human GPC3 on cells; assay: FACS, Huh-7 cells; remark: listed apart in the source
Source text: as §2

human GPC3 on cells [9] = biological target: T1, human GPC3 on cells; assay: cell-based or functional assay; remark: listed apart in the source
human GPC3 on cells [10] = biological target: T1, human GPC3 on cells; assay: FACS, GPC3-CHOK1 cells; remark: listed apart in the source
Experimental: as §1

human GPC3 on cells [11] = biological target: T1, human GPC3 on cells; assay: FACS, Huh-7 cells; remark: listed apart in the source
Experimental: as §1

human GPC3 on cells [12] = biological target: T1, human GPC3 on cells; assay: FACS, HEPG2 cells
Source text: as §2

human GPC3 on cells [13] = biological target: T1, human GPC3 on cells; assay: FACS, GPC3-CHOK1 cells
human GPC3 on cells [14] = biological target: T1, human GPC3 on cells; assay: FACS, HEPG2 cells
human GPC3 on cells [15] = biological target: T1, human GPC3 on cells; assay: cell-based or functional assay; remark: listed apart in the source
human GPC3 on cells [16] = biological target: T1, human GPC3 on cells; assay: FACS, HEPG2 cells; remark: listed apart in the source
human GPC3 on cells [17] = biological target: T1, human GPC3 on cells; assay: FACS, Huh-7 cells
human GPC3 on cells [18] = biological target: T1, human GPC3 on cells; assay: FACS, GPC3-CHOK1 cells; remark: listed apart in the source

Binder	EC50 (human GPC3 on cells [4]) [µg/mL]	EC50 (human GPC3 on cells [5]) [µg/mL]	Kd [6] [nM]	koff [6] [s⁻¹]	kon [6] [M⁻¹ s⁻¹]	EC50 (human GPC3 on cells [7]) [nM]	EC50 (human GPC3 on cells [8]) [nM]	internalization activity to HEPG2 cells, EC50 (pHAb dye fluorescence) (human GPC3 on cells [9]) [µg/mL]	EC50 (human GPC3 on cells [12]) [nM]	also measured
52H5D3B8-19#-VH2+VL3 (antibody, V domains shown) VH: QVQLVQSGAEVKKPGASVKVSCKASGYTFTGYEMHWVRQAPGQGLEWIGAIHPGSGGTAYNQKFKGRVTMTADTSTSTVYMELSSLRSEDTAVYYCTRYYSYAYWGQGTLVTVSS VL: DIVMTQTPLSLSVTPGQPASISCRSSQSLVHSNGNTYLQWYLQKPGQSPKLLIYKVSNRFAGVPDRFSGSGSGTDFTLKISRVEAEDVGVYYCVESIHVPYTFGGGTKLEIK	–	–	–	–	–	–	–	–	–	EC50 of ADCC signaling (Jurkat-hCD16a-NFAT luciferase reporter), HEPG2 cells (human GPC3 on cells [1]): 0.0844 nM; EC50 of ADCC signaling (Jurkat-hCD16a-NFAT luciferase reporter), Huh-7 cells (human GPC3 on cells [1]): 0.266 nM; EC50 (human GPC3 on cells [2]): 0.207 nM; EC50 of ADCC cytotoxicity (primary NK cells, LDH), HEPG2 cells (human GPC3 on cells [3]): 0.0852 nM; EC50 of ADCC cytotoxicity (primary NK cells, LDH), Huh-7 cells (human GPC3 on cells [3]): 0.0328 nM
Hu 52H5D3B8-12 (antibody, V domains shown, humanized 52H5D3B8; also called 52H5D3B8 VH5 + VL1) VH: EVQLVQSGAEVKKPGASVKVSCKASGYTFTDYEMHWVRQAPGQGLEWIGAIHPGSGGTAYNQKFKGKATLTADKSISTAYMELSRLRSDDTAVYYCTRFYSYAYWGQGTLVTVSS VL: DVVMTQTPLSLSVTPGQPASISCRSSQSLVHSNGNTYLQWYLQKPGQSPQLLIYKVSNRFSGVPDRFSGSGSGTDFTLKISRVEAEDVGVYFCSQSIHVPYTFGGGTKVEIK	0.0294	0.0384	3.22	0.001	310000	–	–	–	–	–
Hu 52H5D3B8-11 (antibody, V domains shown, humanized 52H5D3B8; also called 52H5D3B8 VH5 + VL0) VH: EVQLVQSGAEVKKPGASVKVSCKASGYTFTDYEMHWVRQAPGQGLEWIGAIHPGSGGTAYNQKFKGKATLTADKSISTAYMELSRLRSDDTAVYYCTRFYSYAYWGQGTLVTVSS VL: DVVMTQTPLSLSVTPGQPASISCRSSQSLVHSNGNTYLQWYLQKPGQSPQLLIYKVSNRFSGVPDRFSGSGSGTDFTLKISRVEAEDVGVYYCSQSIHVPYTFGGGTKVEIK	0.0288	0.04	3.06	0.000905	295000	–	–	–	–	–
Hu 52H5D3B8-10 (antibody, V domains shown, humanized 52H5D3B8; also called 52H5D3B8 VH4 + VL1) VH: EVQLVQSGAEVKKPGASVKVSCKASGYTFTDYEMHWVRQAPGQGLEWIGAIHPGSGGTAYNQKFKGRVTLTADKSISTAYMELSRLRSDDTAVYYCTRFYSYAYWGQGTLVTVSS VL: DVVMTQTPLSLSVTPGQPASISCRSSQSLVHSNGNTYLQWYLQKPGQSPQLLIYKVSNRFSGVPDRFSGSGSGTDFTLKISRVEAEDVGVYFCSQSIHVPYTFGGGTKVEIK	0.0323	0.0389	3.89	0.00104	267000	–	–	–	–	–
Hu 52H5D3B8-8 (antibody, V domains shown, humanized 52H5D3B8; also called 52H5D3B8 VH3 + VL1) VH: EVQLVQSGAEVKKPGASVKVSCKASGYTFTDYEMHWVRQAPGQGLEWMGAIHPGSGGTAYNQKFKGRVTMTADKSISTAYMELSRLRSDDTAVYYCTRFYSYAYWGQGTLVTVSS VL: DVVMTQTPLSLSVTPGQPASISCRSSQSLVHSNGNTYLQWYLQKPGQSPQLLIYKVSNRFSGVPDRFSGSGSGTDFTLKISRVEAEDVGVYFCSQSIHVPYTFGGGTKVEIK	–	–	3.31	0.0011	332000	0.434	0.418	0.78	0.693	EC50 (human GPC3 on cells [10]): 0.0432 µg/mL; EC50 (human GPC3 on cells [11]): 0.0233 µg/mL
Hu 52H5D3B8-7 (antibody, V domains shown, humanized 52H5D3B8; also called 52H5D3B8 VH3 + VL0) VH: EVQLVQSGAEVKKPGASVKVSCKASGYTFTDYEMHWVRQAPGQGLEWMGAIHPGSGGTAYNQKFKGRVTMTADKSISTAYMELSRLRSDDTAVYYCTRFYSYAYWGQGTLVTVSS VL: DVVMTQTPLSLSVTPGQPASISCRSSQSLVHSNGNTYLQWYLQKPGQSPQLLIYKVSNRFSGVPDRFSGSGSGTDFTLKISRVEAEDVGVYYCSQSIHVPYTFGGGTKVEIK	–	–	3.23	0.00103	320000	0.467	0.464	0.72	0.757	EC50 (human GPC3 on cells [10]): 0.0447 µg/mL; EC50 (human GPC3 on cells [11]): 0.0242 µg/mL
52H5D3B8-20#-VH2+VL3 (antibody, V domains shown) VH: QVQLVQSGAEVKKPGASVKVSCKASGYRFTDYEMHWVRQAPGQGLEWIGAIHPGSGGTAYNQLFKGRVTMTADTSTSTVYMELSSLRSEDTAVYYCTRYYSYAYWGQGTLVTVSS VL: DIVMTQTPLSLSVTPGQPASISCRSSQSLVHSNGNTYLQWYLQKPGQSPKLLIYKVSNRFPGVPDRFSGSGSGTDFTLKISRVEAEDVGVYYCVESIHVPYTFGGGTKLEIK	–	–	–	–	–	–	–	–	–	EC50 of ADCC signaling (Jurkat-hCD16a-NFAT luciferase reporter), HEPG2 cells (human GPC3 on cells [1]): 0.0571 nM; EC50 of ADCC signaling (Jurkat-hCD16a-NFAT luciferase reporter), Huh-7 cells (human GPC3 on cells [1]): 0.124 nM; EC50 (human GPC3 on cells [2]): 0.207 nM; EC50 of ADCC cytotoxicity (primary NK cells, LDH), HEPG2 cells (human GPC3 on cells [3]): 0.121 nM; EC50 of ADCC cytotoxicity (primary NK cells, LDH), Huh-7 cells (human GPC3 on cells [3]): 0.0287 nM
Y035 (Carsgen Therapeutics, US20190046659) (antibody, from another filing, V domains shown) VH: EVQLVQSGAEVKKPGASVKVSCKASGYTFSDYEMHWVRQAPGQGLEWMGAIHPGSGDTAYNQRFKGRVTITADKSTSTAYMELSSLRSEDTAVYYCARFYSYAYWGQGTLVTVSA VL: DIVMTQTPLSLPVTPGEPASISCRSSQSLVHSNGNTYLQWYLQKPGQSPQLLIYKVSNRFSGVPDRFSGSGSGTDFTLKISRVEAEDVGVYYCSQSIYVPYTFGQGTKLEIKR	–	–	–	–	–	–	–	–	–	EC50 (human GPC3 on cells [13]): 1.42 nM; EC50 (human GPC3 on cells [14]): 1.25 nM; internalization activity to HEPG2 cells, EC50 (pHAb dye fluorescence) (human GPC3 on cells [15]): 1.08 µg/mL; internalization activity to HEPG2 cells, Top (pHAb dye fluorescence) (human GPC3 on cells [15]): 52000; EC50 (human GPC3 on cells [16]): 1.59 nM; EC50 (human GPC3 on cells [17]): 1.18 nM; EC50 (human GPC3 on cells [18]): 1.46 nM
Y035 CDRs with Hu 52H5D3B8-7 FRs (antibody, V domains shown) VH: EVQLVQSGAEVKKPGASVKVSCKASGYTFTDYEMHWVRQAPGQGLEWMGAIHPGSGDTAYNQRFKGRVTMTADKSISTAYMELSRLRSDDTAVYYCTRFYSYAYWGQGTLVTVSS VL: DVVMTQTPLSLSVTPGQPASISCRSSQSLVHSNGNTYLQWYLQKPGQSPQLLIYKVSNRFSGVPDRFSGSGSGTDFTLKISRVEAEDVGVYYCSQSIYVPYTFGGGTKVEIK	–	–	–	–	–	0.985	0.667	1.11	1.05	–
Hu 52H5D3B8-7/8 CDRs with Y035 FRs (antibody, V domains shown) VH: EVQLVQSGAEVKKPGASVKVSCKASGYTHSDYEMHWVRQAPGQGLEWMGAIHPGSGGTAYNQKFKGRVTITADKSTSTAYMELSSLRSEDTAVYYCARFYSYAYWGQGTLVTVSA VL: DIVMTQTPLSLPVTPGEPASISCRSSQSLVHSNGNTYLQWYLQKPGQSPQLLIYKVSNRFSGVPDRFSGSGSGTDFTLKISRVEAEDVGVYYCSQSIHVPYTFGQGTKLEIKR	–	–	–	–	–	0.798	0.782	1.14	1.16	–
